Measured values from the supplement of paper PMC12764529.
± gives the half width of the 95% confidence interval.

Experiments:
[1] = folding stability dG unfold (combined trypsin and chymotrypsin); higher = more stable
How it was run: (§1)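 Designed mini-proteins with no cysteine and under 80 residues were kept only if AlphaFold2 dimer inter-PAE was above 15. In a PA-tagged cDNA display construct, they were digested with trypsin and chymotrypsin and then sequenced. K50 was inferred by Bayesian fitting of counts, and unfolding free energy was derived per protease or combined against a sequence-predicted unfolded-state K50 and a shared folded-state K50.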

[2] = folding stability dG unfold from chymotrypsin proteolysis; higher = more stable
How it was run: as §1

[3] = folding stability dG unfold from trypsin proteolysis; higher = more stable
How it was run: as §1

Sequence	folding stability dG unfold [1] [kcal/mol]	folding stability dG unfold [2] [kcal/mol]	folding stability dG unfold [3] [kcal/mol]
SAGGSAFKLTFKNMKIESKMPNPDGQKMIRIEWPDGLSIMIHPPNAIWIMPKDDPEMPPGDMVPIDSAGGSA [r15_692_TrROS]	0.953 ± 0.28	0.782 ± 0.28	0.695 ± 0.25
SAGGSAFPTIAESPGVVKIEPLPDGTIKITFNTSEEAKEKIIEELKKLGNFNVEEDPEKPVLIVKKSAGGSA [r15_554_JUSTAS]	2.6 ± 0.098	2.95 ± 0.059	1.7 ± 0.087
SAGGSAGAPLVLAEVELDPETGEVRIRVYDPVTGKVYEYTTPGSLADAIREIERETGIPITEVVVASAGGSA [r15_101_TrMRF]	3.63 ± 0.077	3.73 ± 0.073	3.47 ± 0.099
SAGGSAGDPSLPQPQYIAFLLVTKPGGVEEPLEVEVKTEEEAEKIAQEVRDAGYEVELELRPAALLSAGGSA [r15_906_JUSTAS]	1.44 ± 0.38	0.945 ± 0.28	1.72 ± 0.16
SAGGSAGEIEGEEAAKLVEDALRALDPNVRVEYEPLPGEKPLLLVRVYRVDPESGAETPLATLLIGSAGGSA [r15_682_TrMRF]	2.4 ± 0.077	2.69 ± 0.066	1.78 ± 0.05
SAGGSAGETVYRVKIRVNGEELEIEVSAEELEALKALPGLEIELVRVEPAPPPEREETVVPEEEEESAGGSA [r15_443_TrROS_Hall]	3.43 ± 0.12	3.36 ± 0.13	3.43 ± 0.17
SAGGSAGGAANIPADQTLEFPTPDGYRRRLTYYPDEGLLVAEYVNPADGTPTFYTFDIPPDSTLSAGGSAGG [r6_406_TrMRF]	1.21 ± 0.057	1.43 ± 0.084	0.864 ± 0.048
SAGGSAGGAEIVEIEVRKEKRPDGKEVLTVKVKIKLENGEEIEVTVREGMTLEEALKKAKELLKSAGGSAGG [r6_986_TrROS_Hall]	2.56 ± 0.14	2.75 ± 0.12	2.1 ± 0.086
SAGGSAGGAELKPVGNDPETGKTAVILLKKPDPTGLVLALEGLSPEELKKLAEIPGYEAVAVLASAGGSAGG [r6_185_TrMRF]	0.787 ± 0.071	0.213 ± 0.23	0.996 ± 0.037
SAGGSAGGAPQGSTSSLTDPSTGLRYASTNPPGTSSSFTFPPSVSPEEVAARLRAQGVAGLNLSSAGGSAGG [r6_83_JUSTAS]	0.0679 ± 0.081	0.339 ± 0.073	-0.81 ± 0.35
SAGGSAGGAVDPALVSEETTSTSYYPDGTVVTTTTLKVPGKGTTVTLTTVTPLPPSSPSPSASLSAGGSAGG [r6_758_JUSTAS]	0.761 ± 0.23	0.437 ± 0.077	1.13 ± 0.043
SAGGSAGGDALKELIKNMPPGEPRKITIPIKYEDGRYYRIDIEIQMNPNNGEWQLDIDIEPYPPSAGGSAGG [r6_545_TrROS]	1.91 ± 0.25	2.46 ± 0.054	0.881 ± 0.089
SAGGSAGGDEKAKEELKKKKPPKIELTVKVEVEVSEDGTVKVKAKVFGPDGKLIAEAEFTFKVKSAGGSAGG [r6_419_TrROS_Hall]	2.58 ± 0.38	2.5 ± 0.12	1.67 ± 0.19
SAGGSAGGDIEVRPVGVVPTPDGRLVRVEEVTFPETGRTLLVAVDLEPGRVYVFDPETGEWREESAGGSAGG [r6_114_TrMRF]	1.41 ± 0.075	1.76 ± 0.02	0.502 ± 0.091
SAGGSAGGDKAVIVDFNPIEPEAVIYFPKTGKAIKFKFDSLEELRDSIEPSGIPVEIVITPPELSAGGSAGG [r6_27_TrMRF]	0.141 ± 0.19	0.196 ± 0.25	-0.138 ± 0.19
SAGGSAGGDPNDKPMKFELIETFTIPGNLNEAKDFLEDLLPPNWAINVEQEPGMITITIYKMKDSAGGSAGG [r6_953_TrROS]	2.22 ± 0.2	2.23 ± 0.073	1.78 ± 0.17
SAGGSAGGDRIKIRFPDYRYEIEIPPGIESITTIQFHKDGWFTLTIPGNGQQIKIPIPPPDDDPSAGGSAGG [r6_370_TrROS]	1.51 ± 0.24	1.73 ± 0.15	1.23 ± 0.057
SAGGSAGGDTLTIVVEGMSAEELAALLKELFPDAEVTVTEVGEPRLVTVTVTVKVETEFELPEESAGGSAGG [r6_607_TrROS_Hall]	2.28 ± 0.1	2.36 ± 0.087	2.13 ± 0.099

Sequence	folding stability dG unfold [1] [kcal/mol]	folding stability dG unfold [2] [kcal/mol]	folding stability dG unfold [3] [kcal/mol]
SAGGSAGGEEEELTEEERRELERRRRRLEEERRRRRPPRPRLRLTLTVRLPDGSTVTLEVEIRLSAGGSAGG [r6_844_TrROS_Hall]	3.16 ± 0.14	3.73 ± 0.056	2.2 ± 0.061
SAGGSAGGEEEYYEIEIVLPKEKAEEILEELKKKLPEGWEIVSVEVVEVDEDGYVRLRIVVKRTSAGGSAGG [r6_340_TrROS_Hall]	4.52 ± 0.3	4.21 ± 0.14	5.01 ± 0.53
SAGGSAGGEEIAKKLRDLAKKLGLDVEIKKIEVTKYPLPEGDENKEEKWVTTITITVNGKKITLSAGGSAGG [r6_686_TrROS_Hall]	2.37 ± 0.081	2.53 ± 0.061	2.22 ± 0.053
SAGGSAGGEELAKRLKELFPNAKIVEIKYDKKTKKVTIKVELEPGMSEEQRERLRKLLEELLKKSAGGSAGG [r6_97_TrROS_Hall]	3.07 ± 0.15	2.85 ± 0.099	3.13 ± 0.17
SAGGSAGGEIKAKVPYEKYPKYYKVKVEIYDPNTKKKIEYEALFPKGTKISAEEIAKKIVKKIKSAGGSAGG [r6_233_TrMRF]	1.26 ± 0.24	1.54 ± 0.085	0.876 ± 0.086
SAGGSAGGEIPADAEIEEFEFGGKPYFLVRFPDGTAALYERKGDKWELIATVPVPPDSRIFFKGSAGGSAGG [r6_475_TrMRF]	1.12 ± 0.041	1.19 ± 0.086	0.946 ± 0.037
SAGGSAGGEIRERLRELIEQLPEEELVVRIRRNGEEVELTFRTREDLEAALEANPEAEIEIVRRSAGGSAGG [r6_421_TrROS_Hall]	3 ± 0.058	3.35 ± 0.037	2.02 ± 0.023
SAGGSAGGEISFDPETGKLTILAPSSISPDAIKKAIEEAGIPFKITSVSYIPDPKTLKVEYEISSAGGSAGG [r6_395_TrMRF]	0.719 ± 0.19	0.249 ± 0.29	0.841 ± 0.025
SAGGSAGGEKTTVLVRVELYLEDTEVVELPDFVFTDLTEEQVLEEVRKLGLPDNVKVEIIPLPASAGGSAGG [r6_88_TrMRF]	2.47 ± 0.11	2.46 ± 0.11	2.53 ± 0.073
SAGGSAGGELELELTVRLPNGLEVRIRARVKFDEETNEWTITEIEIEIRPLPPPPVLDKDGKLVSAGGSAGG [r6_506_TrROS_Hall]	2.93 ± 0.47	3.04 ± 0.31	3.24 ± 0.19
SAGGSAGGETITVKVKIKNEDGEEIEVEAEVTKNKDGSYTITIKNKETGETKVVPNATIEEVEPSAGGSAGG [r6_254_TrROS_Hall]	1.93 ± 0.18	2.19 ± 0.18	1.59 ± 0.12
SAGGSAGGGDLVVYRLEVRRFEPGTGRLVETRSRTVVVPKEDLPELLERIPPGYEVLRIEAFPESAGGSAGG [r6_776_TrMRF]	0.494 ± 0.11	0.361 ± 0.16	0.636 ± 0.067
SAGGSAGGGFVTIEVEITEVVGKTKDEEGKPHPGDPNDPSGYVKLPPFPVKVPSSPEEYAALLSSAGGSAGG [r6_219_JUSTAS]	0.301 ± 0.16	-0.31 ± 0.62	0.551 ± 0.076
SAGGSAGGGIEEELRRVLPEDATVTIEEVPERPLLVVTVTFPERAETRTFTFSPESPEKLIEALSAGGSAGG [r6_612_JUSTAS]	0.679 ± 0.12	0.628 ± 0.12	0.82 ± 0.049
SAGGSAGGGITAKEAAELLEKYLKEKGYDYEVKIEEVDPVNPTVKITVTFPDGSKLEITLPIVDSAGGSAGG [r6_617_TrMRF]	3.09 ± 0.2	3.21 ± 0.34	3.02 ± 0.16
SAGGSAGGGKVKVELEPLEDDSYRLRITVELPDGSKIEKPVILPSNVPPELSAEKVAEEILKKESAGGSAGG [r6_895_TrMRF]	0.228 ± 0.24	-0.117 ± 0.34	0.378 ± 0.089
SAGGSAGGGMGPASFYIVTVDPNNPNVTKVESLSPSVDISLYRKKPFPIKTFSASNIEKLLKELSAGGSAGG [r6_864_JUSTAS]	0.619 ± 0.11	0.791 ± 0.18	0.334 ± 0.12
SAGGSAGGGMLNGLLEKLLLAEPVEVDPVTTTVTPSPNGTVTTTPVYSTADDSVLTETQTTPVASAGGSAGG [r6_326_JUSTAS]	-0.0634 ± 0.14	-0.574 ± 0.19	0.341 ± 0.057
